Consider two proteins from PMC4257621, “Structural implications of the C-terminal tail in the catalytic and stability properties of manganese peroxidases from ligninolytic fungi” (Acta Crystallographica Section D: Biological Crystallography, 2014).

Substrate in the series: CCn1c(=NN=c2sc3cc(S(=O)(=O)O)ccc3n2CC)sc2cc(S(=O)(=O)O)ccc21
The series is described as follows: purified protein. The format is biochemical, Gelatoporia subvermispora. The following applies: 0.1 M tartrate pH 3.5, 25°C, 0.1 mM H2O2, no Mn2+, micro and ± signs lost in table, µM supported by b43.

What is called Km is the concentration of substrate that gives half-maximal velocity. In general, kcat refers to the number of substrate molecules converted per active site and unit of time at saturation. By kcat/Km is commonly meant the second-order rate constant that governs catalysis at low substrate concentration.

B1: MnP13 (short) (Gelatoporia subvermispora B) (protein)
chain: VTCPDGVNTVANAACCPLFAVRDDIQESLFDGGKCGEEVHESLRLTFHDAIGFSPSLTAQGKFGGGGADGSIAIFESIETGYHANLGIDEIINEQATFILKHNMTAGDFIQFAGAVGVSNCPGAPQLEFLLGRPAATAPAPDKTVPEPFDTVDSILARFGDAGFSPQEVIALLASHSVAAADHVDPAIPGTPFDSTPSDFDPQIFIEVQLRGTLFPGTGGNQGEVESPYPGEIRLQSDHNLARDSRTACFWQSLANNQQQMQAQFKAAMAKLAVLGQDVSQMVDCSDVIPVPLPPATTPHIPAGLSQNNIEQACATAAFPTLPIDVGPQTSIPPVPGS
For B1, the Km is given as 2440 ± 200 µM, the kcat turned out to be 93 ± 3 s⁻¹ and the kcat/Km worked out at 38000 M⁻¹ s⁻¹.

B2: MnP6 short variant (Gelatoporia subvermispora B; D200V) (protein)
chain: AVCSDGTRVSNAVCCDFVSLGQDLQSMVLQGDCGEDAHEIIRLTFHDAVAISRKLGPSAGGGADGSMLLFPLVEPEFAASNGIDDSVNNLIPFLSLHPTISAGDLVQFAGAVALSNCPGAPRVQFLAGRPNHTIAAIDGLIPEPQDNVTSILERFDDAGGFTPFEVVSLLASHTIARAVKVDPTLDAAPFDTTPFTFDSQIFLEVLLKGVGFPGLDNNTGEVSSPLPLGDTSTGGKDTGLMRLQSDFALAHDPRTACFWQGFVDQQEFMSQSFASAFAKLAVLGHNTDDLIDCSEVVPVPKPAVDKPTTFPATTGPQDLELSCLAERFPTLSVDPGAQETLIPHCSD
As to B2, the Km is reported as 288 ± 12 µM, the kcat was 76 ± 1 s⁻¹ and the kcat/Km turned out to be 263000 M⁻¹ s⁻¹.
